Source: patent US20110059102A1, “Therapeutic Method Targeting Midkine” (NATIONAL UNIVERSITY CORPORATION NAGOYA UNIVERSITY, priority 2009, published 2011)
“Also recorded” adds a separate entry of the source. Like-named read-outs stand apart in the source and are kept apart here.

Legend:
[1] = system: Mdk-/- mice after 5/6 nephrectomy; experiment: rh-MK and -PTN treatment model (osmotic pump), blood pressure by tail-cuff; format: in vivo; conditions: 1.6 mg/ml, 100 μl by osmotic pump over 14 days
Procedure: (§1) rh-MK and -PTN treatment model. In the pump study, MK protein in saline (1.6 mg/ml) (n=5), PTN in saline (1.6 mg/ml; n=5), or saline alone (n=5) was infused using an osmotic pump (ALZA Corp.) into Mdk^−/− mice after 5/6 nephrectomy. The pumps continuously infused a total of 100 μl over 14 days. The pumps were implanted under the dorsal skin the next day after 5/6 nephrectomy. Blood pressure was measured by the indirect tail-cuff technique at 0 and 2 weeks after 5/6 nephrectomy. Mice were sacrificed at 2 weeks after 5/6 nephrectomy, and blood and tissue samples were collected.
Blood pressure monitoring. Blood pressure was measured in restrained, conscious mice by the indirect tail-cuff technique under unstressed conditions (BP-98A; Softron) at 0, 2, 4, 6, and 8 weeks after 5/6 nephrectomy (J. Lab. Clin. Med. 78:957-962). Before measurement, the mice were warmed with a heating pad for 5 minutes. A total of 7-10 readings were taken for each mouse, at 1- to 2-minute intervals.

ACE [2] = experiment: rh-MK and -PTN treatment model, ACE expression in the lung by Western blotting; format: in vivo; conditions: Mdk-/- mice after 5/6 nephrectomy, 1.6 mg/ml, 100 μl by osmotic pump over 14 days
Procedure: as §1
Western blot analysis. Mouse kidney, lung, brain, heart, and liver tissues were snap-frozen in liquid nitrogen for protein isolation. Western blot analysis was performed as described previously (Br. J. Cancer. 75:354-359). The blots were subsequently incubated with goat anti-human MK antibody (dilution, 1:1,000), monoclonal anti-β-actin antibody (dilution, 1:1,000; Sigma-Aldrich), mouse anti-ACE monoclonal antibody (dilution, 1:1,000; Chemicon International, Millipore), or rabbit anti-phospho-PKC antibody (dilution, 1:1,000; Cell Signaling Technology), followed by incubation with peroxidase-conjugated goat IgG, mouse IgG, or rabbit IgG (dilution, 1:5,000; Jackson Immunoresearch Laboratories Inc.). […] The density of each band was measured using the public domain NIH Image program (http://rsb.info.nih.gov/nih-image/).

ACE [3] = experiment: ACE expression in HMVEC-L by Western blotting; format: cell-based, human; conditions: exogenous MK protein 100 ng/ml plus heparin 20 μg/ml
Text: Histology and immunohistochemistry. The removed kidneys and lungs were fixed in 10% buffered formalin, embedded in paraffin, and then cut into 4-10.1 μm sections. The sections were stained with H&E, PAS, and Masson's trichrome. Another tissue sample was embedded in OCT compound (Sakura Finetek) and frozen in liquid nitrogen for immunostaining. Sections were cut to a thickness of 3 μm with a cryostat and fixed in acetone. High-power fields were used to examine the sections for evidence of focal sclerosis (J. Hypertens. 13:1785-1790, J. Lab. Clin. Med. 115:165-173). Glomerular sclerosis was assessed by semiquantitative score (grades 0 to +4) using the method of Raij et al. (Kidney Int. 26:137-143): grade 0, no sclerosis of glomeruli; grade 1, sclerosis of up to 25% of glomerulus; grade 2, sclerosis of 25%-50% of glomerulus; grade 3, sclerosis of 50%-75% of glomerulus; grade 4, sclerosis of 75%-100% of glomerulus. At least 50 glomeruli were evaluated under ×400 magnification and results averaged for each kidney (Mdk^+/+: 2 weeks, n=5; 4 weeks, n=4; 8 weeks, n=4; Mdk^−/−: 2 weeks, n=4; 4 weeks, n=3; 8 weeks, n=3). Immunostaining for ACE and MK was performed on buffered formalin-fixed tissues. Sections were deparaffinized, rehydrated, incubated in 3% hydrogen peroxide in methanol to block endogenous peroxidase, and washed in 10% normal goat serum (Dako) in PBS to block nonspecific binding. Subsequently, sections were incubated with mouse anti-ACE monoclonal antibody (dilution, 1:400; Chemicon International, Millipore) or anti-MK monoclonal antibody (dilution, 1:100) overnight at 4° C. as described previously (22), followed by a conjugate of polyclonal goat anti-mouse IgG antibody and HRP-labeled polymer (Histofine Simple Stain; Nichirei) for 1 hour at room temperature as a secondary antibody. The staining was visualized with 3-3′ diaminobenzidine (Nichirei) to produce a brown color. The sections were covered with 90% glycerol containing p-phenylenediamine and were examined by electron microscopy (H-7100; Hitachi). For double immunofluorescence staining of MK and thrombomodulin as a marker of the vascular endothelium, the cryosections of lungs were first incubated with chicken anti-human MK (dilution, 1:200) and then with rabbit anti-rat thrombomodulin (dilution, 1:1,000) (J. Immunol. 150:5633-5646), followed by incubation with FITC-labeled rabbit anti-chicken IgG (dilution, 1:160) and rhodamine-labeled goat anti-rabbit IgG (dilution, 1:320) as secondary antibodies. […] The lung and kidney section from each mouse was viewed under ×400 magnification, and then macrophages or neutrophils were counted from 10 fields and averaged. […]

HMVEC-L = experiment: Ang II concentration in HMVEC-L (conversion from Ang I to Ang II); format: cell-based, human; conditions: HMVEC-L treated 36 hours with MK 100 ng/ml plus heparin 20 μg/ml or heparin alone, then Ang I added
Procedure: Ang II concentration in HMVEC-L. After reaching confluence, HMVEC-L were washed with PBS and cultured for 24 hours in essential basal medium containing 0.5% FBS. These cells were exposed to 100 ng/ml rh-MK plus 20 μg/ml heparin or 20 μg/ml heparin alone in essential basal medium containing 0.5% FBS for 36 hours. After stimulation, HMVEC-L were washed with PBS and exposed to 500 pM Ang I (Sigma-Aldrich) for 10 and 25 minutes. Supernatants were collected into chilled tubes, and then the Ang II concentration was measured as previously described (Hypertension. 39:129-134).

PKC = experiment: Phospho-PKC expression in HMVEC-L by Western blotting; format: cell-based, human; conditions: exogenous MK 100 ng/ml plus heparin 20 μg/ml
Text: Histology and immunohistochemistry. The removed kidneys and lungs were fixed in 10% buffered formalin, embedded in paraffin, and then cut into 4-10.1 μm sections. The sections were stained with H&E, PAS, and Masson's trichrome. Another tissue sample was embedded in OCT compound (Sakura Finetek) and frozen in liquid nitrogen for immunostaining. Sections were cut to a thickness of 3 μm with a cryostat and fixed in acetone. High-power fields were used to examine the sections for evidence of focal sclerosis (J. Hypertens. 13:1785-1790, J. Lab. Clin. Med. 115:165-173). Glomerular sclerosis was assessed by semiquantitative score (grades 0 to +4) using the method of Raij et al. (Kidney Int. 26:137-143): grade 0, no sclerosis of glomeruli; grade 1, sclerosis of up to 25% of glomerulus; grade 2, sclerosis of 25%-50% of glomerulus; grade 3, sclerosis of 50%-75% of glomerulus; grade 4, sclerosis of 75%-100% of glomerulus. At least 50 glomeruli were evaluated under ×400 magnification and results averaged for each kidney (Mdk^+/+: 2 weeks, n=5; 4 weeks, n=4; 8 weeks, n=4; Mdk^−/−: 2 weeks, n=4; 4 weeks, n=3; 8 weeks, n=3). Immunostaining for ACE and MK was performed on buffered formalin-fixed tissues. […] The lung and kidney section from each mouse was viewed under ×400 magnification, and then macrophages or neutrophils were counted from 10 fields and averaged. […]

[4] = system: retinal nerve degeneration model; conditions: prior injection of midkine; cited from earlier work
[5] = system: cerebral ischemia reperfusion insult model; conditions: cited from earlier work
[6] = system: acute myocardial infarction model; conditions: administration of midkine; cited from earlier work
[7] = compared with mouse MK produced in L cells; cited from earlier work

B1: MK: recombinant human midkine produced in Pichia pastoris; 13 kDa heparin-binding protein (protein, UniProt P21741 21-143, looked up)
Midkine: VAKKKDKVKKGGPGSECAEWAWGPCTPSSKDCGVGFREGTCGAQTQRIRCRVPCNWKKEFGADCKYKFENWGACDGGTGTKVRQGTLKKARYNAQCQETIRVTKPCTPKTKAKAKAKKGKGKD
Question: Which “Hypertension (SBP)” value [1] does the source give for B1 here?
Answer: restore hypertension; also recorded: restored

Question: What about the “ACE expression in the lung” value (ACE [2]) of the same molecule?
Answer: restored

Question: What about the “ACE expression in HMVEC-L” value (ACE [3]) of the same molecule?
Answer: significantly enhanced; also recorded: induced

Question: What about the “Conversion of Ang I to Ang II” value (HMVEC-L) of the same molecule?
Answer: converted to Ang II in a time-dependent manner

Question: What about the “Phosphorylation levels of PKC” value (PKC) of the same molecule?
Answer: increased

Question: What about the Neuronal cell loss [4] of the same molecule?
Answer: reduced

Question: What about the “Loss of hippocampal neuronal cells” value ([5]; post-insult therapeutic administration) of the same molecule?
Answer: ineffective

Question: What about the “Loss of hippocampal neuronal cells” value ([5]; prior ventricular administration of midkine) of the same molecule?
Answer: able to remedy

Question: And the “Apoptotic loss of myocardial cells” value [6]?
Answer: reduction

Question: And the Neurotrophic activity [7]?
Answer: comparable
